The text below walks through data of patent publication US20230272097A1 (PETMEDIX, published 2023).

The target of assay [1] is T1, OX40L ECD-TNCc-HIS protein (trimeric soluble canine OX40L extra cellular domain probe, HIS tagged) (canine; chicken, UniProt P10039 110-139, limits assumed).
T1 construct: domain: trimerization domain; also called HIS tagged trimeric OX40L protein; not shown: HIS tag
T1 sequence: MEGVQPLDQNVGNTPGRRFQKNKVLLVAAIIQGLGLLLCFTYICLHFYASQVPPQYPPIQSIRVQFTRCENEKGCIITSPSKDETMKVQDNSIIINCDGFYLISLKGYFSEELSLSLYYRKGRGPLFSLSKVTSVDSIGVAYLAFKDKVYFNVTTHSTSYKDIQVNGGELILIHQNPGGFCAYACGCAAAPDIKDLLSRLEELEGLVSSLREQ
The assay is described as follows: SPR exp 2, Biacore 8K, OX40L ECD-TNCc-HIS amine coupled to CM5 chip, antibody as analyte, Kd at equilibrium. The source says:
(§1) To determine affinity by SPR (Biacore 8K, Cytivia), purified OX40L ECD-TNCc-HIS protein is covalently bound at low density to the surface of a CM5 sensor chip (Cytivia) by amine coupling, using the manufacturer's recommended protocol. Candidate antibodies are subsequently passed across the chip surface at a range of concentrations and affinity determined using the dedicated software (Biacore Insight Evaluation Software).
(In general: SPR reads the build-up and loss of mass on a sensor chip optically.)

Assay [2] addresses T1, OX40L ECD-TNCc-HIS protein (trimeric …). Nature of the assay: SPR exp 1, Biacore 8K, OX40L ECD-TNCc-HIS amine coupled to CM5 chip, antibody as analyte, Kd at equilibrium.
Description: as §1

In assay [3] the target is T2, canine OX40L, full length membrane form, expressed on the cell surface (HEK293 or MEF cells stably … (canine (dog, beagle))).
T2 construct: The same protein is used on HEK293 and on MEF cells; also called HEK-OX40L; OX40L expressing HEK293 cells
T2 chain: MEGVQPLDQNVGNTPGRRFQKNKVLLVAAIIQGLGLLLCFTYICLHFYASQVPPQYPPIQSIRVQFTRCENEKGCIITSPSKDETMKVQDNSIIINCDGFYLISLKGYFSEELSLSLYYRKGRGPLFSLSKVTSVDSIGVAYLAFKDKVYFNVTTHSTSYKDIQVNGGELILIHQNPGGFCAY
The assay is described as follows: cell binding (flow cytometry on cells expressing OX40L; cell line not given). As for the experimental part: (§2) Specific binding to cells expressing OX40L is confirmed by purifying mAb from the CHO supernatant using protein A resin (MabSelect, Cytiva). In brief, MabSelect resin is washed in PBS and diluted to have a 10% slurry. An appropriate volume of the 10% slurry is added to the supernatant and incubated 5-10′ at RT before being loaded into a filter column. After 3 washes with PBS the antibodies are eluted using IgG elute buffer (Pierce) directly into neutralisation buffer (10 mM TRIS pH8.0), 8:1 IgG elute: neutralisation buffer ratio. Antibody solutions are quantified measuring absorbance at 280 nm, using a Nanodrop One (Thermo Fisher). Serial 1:3 dilutions of purified antibodies ranging from 6.6 μM to 66 pM are prepared in FACS buffer and are used to stain HEK293 or MEF cells (or any other commonly used cell lines) expressing canine OX40L.

The target in assay [4] is T2, canine OX40L, full length membrane …. The assay is described as follows: flow cytometry titration on HEK cells expressing OX40L; Kd (EC50) from GeoMean vs concentration, Prism four parameter fit. The procedure: FIG. 10. Affinity determination for antibodies that bind OX40L on HEK cells expressing OX40L. Graphs are generated by plotting GeoMean arbitrary units (AU) against Log₁₀ [concentration]. Kd (EC₅₀) was calculated using Prism.
as §2
Background: Flow cytometry measures light scatter and fluorescence of single cells or particles in a stream.

The target is the same in assay [5]. The assay is described as follows: flow cytometry titration on MEF cells expressing OX40L; Kd (EC50) from GeoMean vs concentration, Prism four parameter fit. As for the experimental part:
FIG. 11. Affinity determination for antibodies that bind OX40L on MEF cells expressing OX40L. Graphs are generated by plotting GeoMean arbitrary units (AU) against Log₁₀ [concentration]. Kd (EC₅₀) was calculated using Prism.
as §2

B1: PMX014 (antibody, V domains shown)
VH: EVQLVESGGDLVKPGGSLRLSCVASGFTFSNFHMSWVRQAPGKGLQWVAYINSGGFNINYEDAVRGRFTISRDNAKNTLYLQMNSLRAEDTAIYYCARDWDTHLDTNWFYYWGQGTLVTVSS
VL: SYVLTQLPSKNVTLKQSAHITCRGDNIGSKSVHWYQQKLGQAPVLIIYYDSSRPTGIPERFSGANSGNTATLTISGALAEDEADYYCQVWDISAKASVFGGGTHLTVL
notes: Canine variable regions
For B1, the Kd – broadly, the equilibrium constant for the complex coming apart – in assay [1] came out at 6.61 nM; in assay [2], 19.7 nM; in assay [3], 74.6 nM; in assay [4], 5.12 nM; in assay [5] it was 1.11 nM.

B2: PMX012 (antibody, V domains shown)
VH: EVQLVESGGDLVKPGGSLRLACVTSGFTFSSYHMNWVRQAPGKGLQWVAYINTGGTVTTYADAMNADAVRGRFTISRDNVKNTLYLQMNRLRAEDTAVYYCARGYGVFDYWGQGTLVTVSP
VL: SYVLTQLPSKNVTLKQPAHITCGGDNIGSKSVHWYQQKLGQAPVLIIYYDSRRPTGIPERFSGANSGNTATLTISGALAEDEADYYCQVWDNSDRASWVFGEGTQLTVL
notes: Canine variable regions from Ky9 mice; human kappa or canine kappa/lambda light constant
B2: the Kd in assay [1] stood at 14.8 nM; in assay [2], 14.8 nM; in assay [3], 37 nM; in assay [4], 3 nM.
